The record followed here is article PMC4939597, “Mechanism for insulin-like peptide 5 distinguishing the homologous relaxin family peptide receptor 3 and 4” (Scientific Reports, 2016).

The target in test [1] is T1, human RXFP3 (Homo sapiens, UniProt Q9NSD7).
T1 construct: expressed in transfected cells; host or cells: HEK293T
T1 sequence (Q9NSD7 1-469): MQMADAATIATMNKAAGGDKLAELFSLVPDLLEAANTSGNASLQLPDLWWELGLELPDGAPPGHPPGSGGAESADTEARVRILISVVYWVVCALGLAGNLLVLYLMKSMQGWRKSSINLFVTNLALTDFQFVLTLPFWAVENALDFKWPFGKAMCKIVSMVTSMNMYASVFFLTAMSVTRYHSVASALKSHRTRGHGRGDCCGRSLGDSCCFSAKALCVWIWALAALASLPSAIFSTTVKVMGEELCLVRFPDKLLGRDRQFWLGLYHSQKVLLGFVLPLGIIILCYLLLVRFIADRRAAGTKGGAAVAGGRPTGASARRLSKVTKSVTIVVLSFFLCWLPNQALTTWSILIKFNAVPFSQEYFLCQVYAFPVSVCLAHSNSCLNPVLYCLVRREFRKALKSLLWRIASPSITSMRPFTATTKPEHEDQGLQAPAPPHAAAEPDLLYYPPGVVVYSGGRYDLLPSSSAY
Nature of the test: Receptor activation assay, CRE-controlled NanoLuc reporter. The test is classed as cell-based. As to conditions: for activation potency towards RXFP3, result in words: CRE-controlled NanoLuc reporter, HEK293T cells, human RXFP3.

Test [2] addresses T2, human RXFP4 (Homo sapiens, UniProt Q8TDU9).
T2 construct: expressed in transfected cells; host or cells: HEK293T
The test is described as above. The test is classed as cell-based. As to conditions: HEK293T cells cotransfected with human RXFP4 and CRE-controlled NanoLuc reporter; 1.0 μM forskolin; 37 °C, 4 h; mean ± SE, n = 3; SEM.

Test [3] concerns the target T1, human RXFP3. The test can be described thus: Receptor binding assay, competition with NanoLuc-conjugated R3/I5 tracer. Conditions: for pIC50 RXFP3: HEK293T cells transiently overexpressing human RXFP3, 0.5 nM NanoLuc-conjugated R3/I5 tracer, 21 °C, 2 h, mean ± SE, n = 3, SEM. In short, it runs like this: (§1)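 HEK293T cells transiently expressing human RXFP3 or RXFP4 were incubated with 0.5 nM NanoLuc-conjugated R3/I5 tracer plus competitor in serum-free DMEM with 1% BSA, 2 h at 21 °C. Nonspecific binding used 1.0 μM human relaxin-3. After washing and lysis, bioluminescence was read and curves fitted sigmoidally (n = 3).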

Test [4] addresses T2, human RXFP4. The test is described as above. Conditions: HEK293T cells transiently overexpressing human RXFP4; 0.5 nM NanoLuc-conjugated R3/I5 tracer; 21 °C, 2 h; mean ± SE, n = 3; SEM. The method, boiled down:
as §1

No end group written: not given here.

T2 sequence (Q8TDU9 whole entry): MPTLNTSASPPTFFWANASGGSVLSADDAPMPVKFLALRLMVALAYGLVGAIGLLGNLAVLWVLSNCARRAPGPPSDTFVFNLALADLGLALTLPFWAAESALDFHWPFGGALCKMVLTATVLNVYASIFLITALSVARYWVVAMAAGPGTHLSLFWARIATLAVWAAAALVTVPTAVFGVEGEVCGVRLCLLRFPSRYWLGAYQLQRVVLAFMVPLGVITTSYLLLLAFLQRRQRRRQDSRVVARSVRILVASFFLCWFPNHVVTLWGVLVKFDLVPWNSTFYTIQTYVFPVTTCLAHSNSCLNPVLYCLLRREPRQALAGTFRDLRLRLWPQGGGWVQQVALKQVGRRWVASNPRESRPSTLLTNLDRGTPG

Take “[T(B14)A]INSL5: recombinant mature two-chain INSL5 mutant (Insulin-like peptide INSL5 B … KESVRLCGLEYIRAVIYICASSRW; Insulin-like peptide INSL5 A … QDLQTLCCTDGCSMTDLSALC; ends and bridges not checked; cysteine pairing not given here; UniProt Q9Y5Q6 23-46; Q9Y5Q6 115-135, looked up, variant T14A)”: the “activation potency towards RXFP3, result in words” value in the test with human RXFP3 [1] is “no detectable activation potency”. The “pEC50 RXFP4” value with human RXFP4 [2] was 9.05 ± 0.04. Besides, the “pIC50 RXFP3” value with human RXFP3 [3] worked out at 7.06 ± 0.03. Besides, in the test with human RXFP4 [4], the “pIC50 RXFP4” value is reported as 7.57 ± 0.05.
Consider “insulin-like peptide 5 (Insulin-like peptide INSL5 B … KESVRLCGLEYIRTVIYICASSRW; Insulin-like peptide INSL5 A … QDLQTLCCTDGCSMTDLSALC; UniProt Q9Y5Q6 23-46; Q9Y5Q6 115-135, looked up) [recombinant mature two-chain human INSL5, cognate agonist of RXFP4, reference compound]”, for which the “activation potency towards RXFP3, result in words” value with human RXFP3 [1] was “no detectable activation potency”. Moreover, the “pEC50 RXFP4” value with human RXFP4 [2] is listed as 9.36 ± 0.06. For the same substance, the “pIC50 RXFP3” value with human RXFP3 [3] was 7.26 ± 0.05. Besides, the “fold lower binding affinity for RXFP3 than relaxin-3” value with human RXFP3 [3] (lower than relaxin-3) is listed as ~ 27 fold. The “pIC50 RXFP4” value with human RXFP4 [4] stood at 7.75 ± 0.02.
On to “R3/I5: chimeric peptide containing the B-chain of relaxin-3 and the A-chain of INSL5 [reference compound]”, for which, in the test with human RXFP3 [1] (HEK293T cells cotransfected with human RXFP3 and CRE-controlled NanoLuc reporter, 1.0 μM forskolin, 37 °C, 4 h, mean ± SE, n = 3, N.D., not detectable, SEM), the “pEC50 RXFP3” value worked out at 10.44 ± 0.03. Further, in the test with human RXFP4 [2], the “pEC50 RXFP4” value is recorded as 10.32 ± 0.03. For the same substance, the “pIC50 RXFP3” value with human RXFP3 [3] worked out at 8.85 ± 0.02. The “pIC50 RXFP4” value with human RXFP4 [4] is reported as 8.24 ± 0.03.
